From patent US20260000597A1 (priority 2018, published 2026)

Biological target: AchR (Homo sapiens, UniProt P02708)
Test: ELISA of screened peptide phages on AchR versus streptavidin (OD450)
Type: binding
Settings: ELISA of selected 14-mer (L3) peptide phages on AchR, absorbance at 450 nm; Spep-2 positive control
Summary of the method: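 Reported as the ratio of AchR to streptavidin OD450, with TMB read-out after HRP anti-M13 detection. Wells coated with 5 μg/ml target overnight at 4 °C and BSA-blocked, then incubated 1 h at 30 °C with helper-rescued phage from individual plaques.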

AchR, sequence (P02708 21-457): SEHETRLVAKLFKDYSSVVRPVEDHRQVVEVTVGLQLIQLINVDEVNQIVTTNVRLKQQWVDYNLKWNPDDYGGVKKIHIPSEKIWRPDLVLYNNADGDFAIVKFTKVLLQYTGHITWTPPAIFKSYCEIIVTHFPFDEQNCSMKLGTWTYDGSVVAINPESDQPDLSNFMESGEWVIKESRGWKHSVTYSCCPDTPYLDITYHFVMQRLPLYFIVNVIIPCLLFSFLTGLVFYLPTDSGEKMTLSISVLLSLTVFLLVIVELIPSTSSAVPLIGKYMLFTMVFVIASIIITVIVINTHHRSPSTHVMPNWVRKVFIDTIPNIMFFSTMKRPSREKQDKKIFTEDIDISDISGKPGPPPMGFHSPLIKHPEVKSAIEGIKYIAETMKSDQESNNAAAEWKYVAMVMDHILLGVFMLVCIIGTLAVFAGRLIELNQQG

## L3-119 (TPLKSRKYWNKHAY; AchR binding peptide) [Peptide L3-119]
  OD: 0.693

## L3-120 (FLYKAKKALMRDSL; AchR binding peptide) [Peptide L3-120]
  OD: 0.887

## L3-121 (CDDKPKKTVVKLTW; AchR binding peptide) [Peptide L3-121]
  OD: 0.655

## L3-122 (MHPRPRKMSHKMSC; AchR binding peptide) [Peptide L3-122]
  OD: 0.691

## L3-123 (PGERLKKEDHRASG; AchR binding peptide) [Peptide L3-123]
  OD: 0.654

## L3-124 (GAQRARKPVLRAVG; AchR binding peptide) [Peptide L3-124]
  OD: 0.515

## L3-125 (MQEKCRRCVFKGNI; AchR binding peptide) [Peptide L3-125]
  OD: 0.629

## L3-126 (YVDRWRRMQYKLSI; AchR binding peptide) [Peptide L3-126]
  OD: 0.542

## L3-127 (WVDRSRKFEDRNCL; AchR binding peptide) [Peptide L3-127]
  OD: 0.608

## L3-128 (IVNRAKRSQIRFDV; AchR binding peptide) [Peptide L3-128]
  OD: 0.523

## L3-129 (IHPRYKRHQARSCC; AchR binding peptide) [Peptide L3-129]
  OD: 0.606

## L3-130 (EHSKHRKDLFRMVG; AchR binding peptide) [Peptide L3-130]
  OD: 0.531

## L3-131 (YTPKFRRIFWRIID; AchR binding peptide) [Peptide L3-131]
  OD: 0.655

## L3-132 (TITRVKRASHKTPS; AchR binding peptide) [Peptide L3-132]
  OD: 0.619

## L3-133 (VDSREKKWRQKCQC; AchR binding peptide) [Peptide L3-133]
  OD: 0.566

## L3-134 (YWFRIKRAHAKGCP; AchR binding peptide) [Peptide L3-134]
  OD: 0.653

## L3-135 (NDHRMRRSVDRGET; AchR binding peptide) [Peptide L3-135]
  OD: 0.69

## L3-136 (PFDRARRDLHRIMM; AchR binding peptide) [Peptide L3-136]
  OD: 0.512

## L3-137 (QVVRLRRGKNRGTV; AchR binding peptide) [Peptide L3-137]
  OD: 0.565

## L3-138 (TNQRPRRETAKTIE; AchR binding peptide) [Peptide L3-138]
  OD: 0.576

## L3-139 (FHHRHKRIATKHPA; AchR binding peptide) [Peptide L3-139]
  OD: 0.49

## L3-140 (EHCKWKKMFDKEGE; AchR binding peptide) [Peptide L3-140]
  OD: 0.607

## L3-141 (FFYRLRRCLTRWWV; AchR binding peptide) [Peptide L3-141]
  OD: 0.504

## L3-142 (LQCKYRRGSDKTVV; AchR binding peptide) [Peptide L3-142]
  OD: 0.502

## L3-143 (QTMKFKRCCNKEMV; AchR binding peptide) [Peptide L3-143]
  OD: 0.559

## L3-144 (CSYKLRRCDMRLWG; AchR binding peptide) [Peptide L3-144]
  OD: 0.578

## L3-145 (MHIKMKREQVKDEE; AchR binding peptide) [Peptide L3-145]
  OD: 0.495

## L3-146 (AVWRNRKDNVKASE; AchR binding peptide) [Peptide L3-146]
  OD: 0.512

## L3-147 (ADHRAKKTLSKFWT; AchR binding peptide) [Peptide L3-147]
  OD: 0.562

## L3-148 (MMARCRRIMCRSFN; AchR binding peptide) [Peptide L3-148]
  OD: 0.451

## L3-149 (PFGKFKRLENKDEC; AchR binding peptide) [Peptide L3-149]
  OD: 0.571

## L3-150 (YLSRTKRWLARYVE; AchR binding peptide) [Peptide L3-150]
  OD: 0.518

## L3-151 (HTLKPKRLYPRPSE; AchR binding peptide) [Peptide L3-151]
  OD: 0.624

## L3-152 (VVIKCRKWTHKMDH; AchR binding peptide) [Peptide L3-152]
  OD: 0.818

## L3-153 (FHTKLRKPIPKIDM; AchR binding peptide) [Peptide L3-153]
  OD: 0.768

## L3-154 (ENIKSRKYFVKLTW; AchR binding peptide) [Peptide L3-154]
  OD: 0.766

## L3-155 (AWTRFRRFQCKGMS; AchR binding peptide) [Peptide L3-155]
  OD: 0.794

## L3-156 (IVPRDRKQALRWTN; AchR binding peptide) [Peptide L3-156]
  OD: 0.799

## L3-157 (CMLRWKRWHMRFNP; AchR binding peptide) [Peptide L3-157]
  OD: 0.731

## L3-158 (FDMRDRRPNARVMP; AchR binding peptide) [Peptide L3-158]
  OD: 0.738

## L3-159 (QIAKLKRDQMKEAW; AchR binding peptide) [Peptide L3-159]
  OD: 0.786

## L3-160 (LTSRCKKTFQKNSE; AchR binding peptide) [Peptide L3-160]
  OD: 0.792

## L3-161 (MAAKWKKDGMKSHY; AchR binding peptide) [Peptide L3-161]
  OD: 0.733

## L3-162 (ANWRTRRDLAKEHV; AchR binding peptide) [Peptide L3-162]
  OD: 0.781

## L3-163 (PFTKMRKQFQRMSA; AchR binding peptide) [Peptide L3-163]
  OD: 0.78

## L3-164 (QINRVKKSDAKFCT; AchR binding peptide) [Peptide L3-164]
  OD: 0.746

## L3-165 (YLVKLRRFWAKIDM; AchR binding peptide) [Peptide L3-165]
  OD: 0.771

## L3-166 (EYVKAKRTPWKYVV; AchR binding peptide) [Peptide L3-166]
  OD: 0.629

## L3-167 (AMCREKRFPYRAIY; AchR binding peptide) [Peptide L3-167]
  OD: 0.634

## L3-168 (MGLRARKYEDKTLH; AchR binding peptide) [Peptide L3-168]
  OD: 0.775

## L3-169 (FHMKSKKDGDKFVM; AchR binding peptide) [Peptide L3-169]
  OD: 0.783

## L3-170 (CIFKFKKNMFKGYS; AchR binding peptide) [Peptide L3-170]
  OD: 0.768

## L3-171 (LDTKNRRGASKWDY; AchR binding peptide) [Peptide L3-171]
  OD: 0.629

## L3-172 (VTGKGRRVTFRCMN; AchR binding peptide) [Peptide L3-172]
  OD: 0.634

## L3-173 (QLGKQKREATREYV; AchR binding peptide) [Peptide L3-173]
  OD: 0.775

## L3-174 (SSGKWKRPHAKYIV; AchR binding peptide) [Peptide L3-174]
  OD: 0.783

## L3-175 (TCHKTKRSIMRATS; AchR binding peptide) [Peptide L3-175]
  OD: 0.768

## L3-176 (MIGKCRKCGTKCYA; AchR binding peptide) [Peptide L3-176]
  OD: 0.739

## L3-177 (FQPKSRRAETKHSY; AchR binding peptide) [Peptide L3-177]
  OD: 0.735

## L3-178 (PDLKFRKHQDRTAI; AchR binding peptide) [Peptide L3-178]
  OD: 0.755

## L3-179 (YNARVKREGIKNIT; AchR binding peptide) [Peptide L3-179]
  OD: 0.743

## L3-180 (QGIRPRKHLQRMPN; AchR binding peptide) [Peptide L3-180]
  OD: 0.7

## L3-181 (GPCRPRRHSIRLLW; AchR binding peptide) [Peptide L3-181]
  OD: 0.624

## L3-182 (FYLRERRHQLKTEF; AchR binding peptide) [Peptide L3-182]
  OD: 0.818

## L3-183 (NMARSRKNECKYIA; AchR binding peptide) [Peptide L3-183]
  OD: 0.768

## L3-184 (DMDKVKKWVWRSFP; AchR binding peptide) [Peptide L3-184]
  OD: 0.766

## L3-185 (VLPKERRWLTRFLI; AchR binding peptide) [Peptide L3-185]
  OD: 0.794

## L3-186 (YEHRHKRFFHKDMP; AchR binding peptide) [Peptide L3-186]
  OD: 0.799

## L3-187 (HGHKPRRWIYRMPM; AchR binding peptide) [Peptide L3-187]
  OD: 0.731

## L3-188 (DGIRDKKCCWRDLI; AchR binding peptide) [Peptide L3-188]
  OD: 0.738

## L3-189 (ELVKHRRLDFRDPM; AchR binding peptide) [Peptide L3-189]
  OD: 0.786

## L3-190 (VHHKLRRVHLRLDV; AchR binding peptide) [Peptide L3-190]
  OD: 0.792

## L3-191 (GINRGRKVSPKDEQ; AchR binding peptide) [Peptide L3-191]
  OD: 0.739

## L3-192 (NGYRARKENLKFPE; AchR binding peptide) [Peptide L3-192]
  OD: 0.735

## L3-193 (AAYRARKIVEKSGW; AchR binding peptide) [Peptide L3-193]
  OD: 0.755

## L3-194 (WAPRDRRNMGRDPA; AchR binding peptide) [Peptide L3-194]
  OD: 0.743

## L3-195 (IEDKSKRFNCKECG; AchR binding peptide) [Peptide L3-195]
  OD: 0.7

## L3-196 (IEMRYRRDCSRFVN; AchR binding peptide) [Peptide L3-196]
  OD: 0.746

## L3-197 (QQIKYKRPTYRMVC; AchR binding peptide) [Peptide L3-197]
  OD: 0.771

## L3-198 (LPWRERRNGGRSSE; AchR binding peptide) [Peptide L3-198]
  OD: 0.78

## L3-199 (PQTRYRKYFYRPQM; AchR binding peptide) [Peptide L3-199]
  OD: 0.781

## L3-200 (HMCRWRRQINKGVS; AchR binding peptide) [Peptide L3-200]
  OD: 0.733
